This test deals with p53 (UniProt P04637).
Chain of p53 (P04637 whole entry): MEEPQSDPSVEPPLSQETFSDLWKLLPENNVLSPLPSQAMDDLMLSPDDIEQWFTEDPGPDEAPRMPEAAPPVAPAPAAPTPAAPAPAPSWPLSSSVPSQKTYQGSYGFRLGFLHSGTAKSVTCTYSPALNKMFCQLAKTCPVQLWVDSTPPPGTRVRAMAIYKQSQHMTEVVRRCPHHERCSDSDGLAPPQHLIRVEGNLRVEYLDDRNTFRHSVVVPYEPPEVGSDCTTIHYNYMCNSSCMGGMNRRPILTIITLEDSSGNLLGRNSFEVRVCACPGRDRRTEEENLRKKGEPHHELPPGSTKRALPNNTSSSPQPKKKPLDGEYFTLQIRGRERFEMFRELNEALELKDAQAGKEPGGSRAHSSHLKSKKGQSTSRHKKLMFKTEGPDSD

For the substance p300 acetyl transferase, Q09472 1-2414, the p53 acetylation (IP with anti-p53, blot with anti-acetyl-lysine) in 3T3-L1 adipocytes overexpressing p53 and p300: reduction by NDN against control adipocytes; reversed by further addition of p300 worked out at 51%.

The record behind these values is PMC12517307.
